Experimental data taken from publication PMC11077590, “The concerted action of SEPT9 and EPLIN modulates the adhesion and migration of human fibroblasts” (Life Science Alliance, 2024).

T1: His6-SEPT9 ΔNΔC (G domain, aa 295-567) (UniProt Q9UHD8 295-567)
T1 construct: also called ΔNΔC-SEPT9; source: E. coli BL21DE3, purified (HisTrap IMAC, buffered in PBS by PD10)
T1 sequence (looked up): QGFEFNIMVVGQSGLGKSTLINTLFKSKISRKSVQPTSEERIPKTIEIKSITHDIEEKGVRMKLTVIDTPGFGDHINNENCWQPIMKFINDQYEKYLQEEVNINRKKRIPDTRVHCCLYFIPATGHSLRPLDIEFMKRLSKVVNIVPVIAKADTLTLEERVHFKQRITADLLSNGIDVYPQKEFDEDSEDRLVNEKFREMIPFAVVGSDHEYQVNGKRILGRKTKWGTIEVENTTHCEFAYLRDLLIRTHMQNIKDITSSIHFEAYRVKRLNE


Columns and labels:
[1] = biological target: T1, His6-SEPT9 ΔNΔC (G domain, aa 295-567); assay: pull-down; GST fusion from E. coli extract held on glutathione Sepharose beads, washed with PBS, blocked with 1.5 μM BSA; purified His6-tagged protein added at 1.5 μM for 30 min in PBS with 0.1 mM Zn2+; eluted with 10 mM reduced glutathione; SDS-PAGE and Western blot; details: both partners purified
[2] = biological target: T2, GST-EPLIN (full length, isoform alpha) (UniProt Q9UHB6-2 1-599); assay: as above; details: both partners purified
T2 construct: EPLIN (epithelial protein lost in neoplasm, LIMA1 product), isoform alpha, full length; ORF amplified from Addgene plasmid #40928; numbers count on: isoform alpha; Vector pGEX2T; All EPLIN constructs derive from plasmid #1 (isoform alpha); also called epithelial protein lost in neoplasm; LIMA1 product
T2 sequence (Q9UHB6 161-759): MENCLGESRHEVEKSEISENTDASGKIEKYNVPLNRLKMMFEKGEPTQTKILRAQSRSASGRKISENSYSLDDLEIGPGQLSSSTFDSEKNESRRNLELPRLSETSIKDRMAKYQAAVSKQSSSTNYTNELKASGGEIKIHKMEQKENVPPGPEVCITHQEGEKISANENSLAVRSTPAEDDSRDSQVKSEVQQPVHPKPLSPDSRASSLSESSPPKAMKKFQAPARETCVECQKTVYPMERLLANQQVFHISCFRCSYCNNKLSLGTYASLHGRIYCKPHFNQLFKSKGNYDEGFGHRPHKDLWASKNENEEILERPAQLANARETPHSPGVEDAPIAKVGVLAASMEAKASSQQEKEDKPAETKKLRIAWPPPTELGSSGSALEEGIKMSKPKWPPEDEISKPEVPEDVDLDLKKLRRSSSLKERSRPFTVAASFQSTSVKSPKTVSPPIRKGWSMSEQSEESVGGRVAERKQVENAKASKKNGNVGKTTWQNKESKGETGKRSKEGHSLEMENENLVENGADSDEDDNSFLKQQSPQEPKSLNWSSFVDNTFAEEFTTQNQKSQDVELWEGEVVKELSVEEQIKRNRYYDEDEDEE

Row | Binder | binding result [1] | binding result [2]
1 | GST-EPLIN LIM (aa 228-288) (domain or fragment, EPLIN (LIMA1 product), isoform alpha, residues 228-288, the LIM domain; Vector pGEX2T; also called isolated LIM domain of EPLIN; plasmid #7) not shown | binds | 
2 | His6-SEPT9 (full length, SEPT9i1) (natural protein, UniProt Q9UHD8 1-586, looked up, derived from plasmid #5 (EGFP-SEPT9, gift of E. Spiliotis); pES is an in-house pET15A-based plasmid for His6-tagged proteins; also called His-SEPT9; purified SEPT9; source: E. coli BL21DE3, purified (HisTrap IMAC, buffered in PBS by PD10)) MKKSYSGGTRTSSGRLRRLGDSSGPALKRSFEVEEVETPNSTPPRRVQTPLLRATVASSTQKFQDLGVKNSEPSARHVDSLSQRSPKASLRRVELSGPKAAEPVSRRTELSIDISSKQVENAGAIGPSRFGLKRAEVLGHKTPEPAPRRTEITIVKPQESAHRRMEPPASKVPEVPTAPATDAAPKRVEIQMPKPAEAPTAPSPAQTLENSEPAPVSQLQSRLEPKPQPPVAEATPRSQEATEAAPSCVGDMADTPRDAGLKQAPASRNEKAPVDFGYVGIDSILEQMRRKAMKQGFEFNIMVVGQSGLGKSTLINTLFKSKISRKSVQPTSEERIPKTIEIKSITHDIEEKGVRMKLTVIDTPGFGDHINNENCWQPIMKFINDQYEKYLQEEVNINRKKRIPDTRVHCCLYFIPATGHSLRPLDIEFMKRLSKVVNIVPVIAKADTLTLEERVHFKQRITADLLSNGIDVYPQKEFDEDSEDRLVNEKFREMIPFAVVGSDHEYQVNGKRILGRKTKWGTIEVENTTHCEFAYLRDLLIRTHMQNIKDITSSIHFEAYRVKRLNEGSSAMANGMEEKEPEAPEM |  | binds
